Reference: patent US20240360201A1 (BIOCYTOGEN PHARMACEUTICALS BEIJING, published 2024)

Molecular target: human CD40 (hCD40-his) (human, UniProt P25942 21-193)
Experiment: SPR Biacore T200; binder captured on protein A chip, target as analyte
Method: Binding affinity to human CD40 of the obtained fusion proteins PDL1-C40-6A7-FV3A (IgG1), PDL1-C40-6A7-FV3A-IgG4, PDL1-C40-6A7-FV3C (IgG1), PDL1-C40-6A7-FV3A1 (IgG1), PDL1-C40-6A7-FV3A2 (IgG1), and PDL1-C40-6A7-FV3A3 (IgG1) were determined by surface plasmon resonance (SPR) using Biacore™ T200 biosensor equipped with pre-immobilized protein A sensor chips. The original anti-CD40 monoclonal antibody C40-6A7 IgG2 (6A7, VH SEQ ID NO: 91, VL SEQ ID NO: 92), which the scFV was derived from, was used as a control.

Sequence of human CD40 (hCD40-his) (P25942 21-193 limits assumed): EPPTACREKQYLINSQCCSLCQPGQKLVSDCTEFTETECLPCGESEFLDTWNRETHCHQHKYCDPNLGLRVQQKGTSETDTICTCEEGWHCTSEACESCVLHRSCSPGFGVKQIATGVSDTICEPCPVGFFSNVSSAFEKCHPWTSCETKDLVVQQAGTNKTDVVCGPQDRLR

Row | Binder | Kd [nM] | koff [s⁻¹] | kon [M⁻¹ s⁻¹]
1 | C40-6A7 (IgG2) (antibody, V domains shown, IgG2; also called original anti-CD40 monoclonal antibody) VH: QVQLVQSGAEVKKPGASVKLSCKASGYTFISYYIYWVKQAPGQGLEWIGGINPRNGGTNFNEKFKSRATLTVDTSISTAYMELSRLRSEDTAVYYCTRHGNGVYWGQGTTLTVSS VL: DVVMTQSPLSLPVTLGQPASISCRSSQSLLHSNGNTYLHWYQQRPGQSPNHLIYQVSNRFSGVPDRFSGSGSGTDFTLKISRVEAEDVGVYFCSQTTHVPWTFGGGTKVEIK | 3.09 | 0.00171 | 554000
2 | PDL1-C40-6A7-FV3A1 (IgG1) (bispecific antibody, IgG1) heavy: EVQLLESGGGLVQPGGSLRLSCAASGFTFSSYIMMWVRQAPGKGLEWVSSIYPSGGITFYADTVKGRFTISRDNSKNTLYLQMNSLRAEDTAVYYCARIKLGTVTTVDYWGQGTLVTVSSASTKGPSVFPLAPSSKSTSGGTAALGCLVKDYFPEPVTVSWNSGALTSGVHTFPAVLQSSGLYSLSSVVTVPSSSLGTQTYICNVNHKPSNTKVDKKVEPKSCDKTHTCPPCPAPELLGGPSVFLFPPKPKDTLMISRTPEVTCVVVDVSHEDPEVKFNWYVDGVEVHNAKTKPREEQYNSTYRVVSVLTVLHQDWLNGKEYKCKVSNKALPAPIEKTISKAKGQPREPQVYTLPPSRDELGGGGSGGGGSDVVMTQSPLSLPVTLGQPASISCRSSQSLLHSNGNTYLHWYQQRPGQSPNHLIYQVSNRFSGVPDRFSGSGSGTDFTLKISRVEAEDVGVYFCSQTTHVPWTFGCGTKVEIKGGGGSGGGGSGGGGSGGGGSQVQLVQSGAEVKKPGASVKLSCKASGYTFISYYIYWVKQAPGQCLEWIGGINPRNGGTNFNEKFKSRATLTVDTSISTAYMELSRLRSEDTAVYYCTRHGNGVYWGQGTTLTVSSGGGGSGGGGSTKNQVSLTCLVKGFYPSDIAVEWESNGQPENNYKTTPPVLDSDGSFFLYSKLTVDKSRWQQGNVFSCSVMHEALHNHYTQKSLSLSPGK light: QSALTQPASVSGSPGQSITISCTGTSSDVGGYNYVSWYQQHPGKAPKLMIYDVSNRPSGVSNRFSGSKSGNTASLTISGLQAEDEADYYCSSYTSSSTRVFGTGTKVTVLGQPKANPTVTLFPPSSEELQANKATLVCLISDFYPGAVTVAWKADGSPVKAGVETTKPSKQSNNKYAASSYLSLTPEQWKSHRSYSCQVTHEGSTVEKTVAPTECS | 0.63 | 0.000388 | 616000
3 | PDL1-C40-6A7-FV3A2 (IgG1) (bispecific antibody, IgG1; scFv inserted between EU 359 and 360) heavy: EVQLLESGGGLVQPGGSLRLSCAASGFTFSSYIMMWVRQAPGKGLEWVSSIYPSGGITFYADTVKGRFTISRDNSKNTLYLQMNSLRAEDTAVYYCARIKLGTVTTVDYWGQGTLVTVSSASTKGPSVFPLAPSSKSTSGGTAALGCLVKDYFPEPVTVSWNSGALTSGVHTFPAVLQSSGLYSLSSVVTVPSSSLGTQTYICNVNHKPSNTKVDKKVEPKSCDKTHTCPPCPAPELLGGPSVFLFPPKPKDTLMISRTPEVTCVVVDVSHEDPEVKFNWYVDGVEVHNAKTKPREEQYNSTYRVVSVLTVLHQDWLNGKEYKCKVSNKALPAPIEKTISKAKGQPREPQVYTLPPSRDELTGGGGSGGGGSDVVMTQSPLSLPVTLGQPASISCRSSQSLLHSNGNTYLHWYQQRPGQSPNHLIYQVSNRFSGVPDRFSGSGSGTDFTLKISRVEAEDVGVYFCSQTTHVPWTFGCGTKVEIKGGGGSGGGGSGGGGSGGGGSQVQLVQSGAEVKKPGASVKLSCKASGYTFISYYIYWVKQAPGQCLEWIGGINPRNGGTNFNEKFKSRATLTVDTSISTAYMELSRLRSEDTAVYYCTRHGNGVYWGQGTTLTVSSGGGGSGGGGSKNQVSLTCLVKGFYPSDIAVEWESNGQPENNYKTTPPVLDSDGSFFLYSKLTVDKSRWQQGNVFSCSVMHEALHNHYTQKSLSLSPGK light: QSALTQPASVSGSPGQSITISCTGTSSDVGGYNYVSWYQQHPGKAPKLMIYDVSNRPSGVSNRFSGSKSGNTASLTISGLQAEDEADYYCSSYTSSSTRVFGTGTKVTVLGQPKANPTVTLFPPSSEELQANKATLVCLISDFYPGAVTVAWKADGSPVKAGVETTKPSKQSNNKYAASSYLSLTPEQWKSHRSYSCQVTHEGSTVEKTVAPTECS | 0.847 | 0.000375 | 443000
4 | PDL1-C40-6A7-FV3A3 (IgG1) (bispecific antibody, IgG1; scFv inserted between EU 360 and 361) heavy: EVQLLESGGGLVQPGGSLRLSCAASGFTFSSYIMMWVRQAPGKGLEWVSSIYPSGGITFYADTVKGRFTISRDNSKNTLYLQMNSLRAEDTAVYYCARIKLGTVTTVDYWGQGTLVTVSSASTKGPSVFPLAPSSKSTSGGTAALGCLVKDYFPEPVTVSWNSGALTSGVHTFPAVLQSSGLYSLSSVVTVPSSSLGTQTYICNVNHKPSNTKVDKKVEPKSCDKTHTCPPCPAPELLGGPSVFLFPPKPKDTLMISRTPEVTCVVVDVSHEDPEVKFNWYVDGVEVHNAKTKPREEQYNSTYRVVSVLTVLHQDWLNGKEYKCKVSNKALPAPIEKTISKAKGQPREPQVYTLPPSRDELTKGGGGSGGGGSDVVMTQSPLSLPVTLGQPASISCRSSQSLLHSNGNTYLHWYQQRPGQSPNHLIYQVSNRFSGVPDRFSGSGSGTDFTLKISRVEAEDVGVYFCSQTTHVPWTFGCGTKVEIKGGGGSGGGGSGGGGSGGGGSQVQLVQSGAEVKKPGASVKLSCKASGYTFISYYIYWVKQAPGQCLEWIGGINPRNGGTNFNEKFKSRATLTVDTSISTAYMELSRLRSEDTAVYYCTRHGNGVYWGQGTTLTVSSGGGGSGGGGSNQVSLTCLVKGFYPSDIAVEWESNGQPENNYKTTPPVLDSDGSFFLYSKLTVDKSRWQQGNVFSCSVMHEALHNHYTQKSLSLSPGK light: QSALTQPASVSGSPGQSITISCTGTSSDVGGYNYVSWYQQHPGKAPKLMIYDVSNRPSGVSNRFSGSKSGNTASLTISGLQAEDEADYYCSSYTSSSTRVFGTGTKVTVLGQPKANPTVTLFPPSSEELQANKATLVCLISDFYPGAVTVAWKADGSPVKAGVETTKPSKQSNNKYAASSYLSLTPEQWKSHRSYSCQVTHEGSTVEKTVAPTECS | 1.04 | 0.000379 | 364000
5 | PDL1-C40-6A7-FV3C (IgG1) (bispecific antibody, IgG1; scFv inserted between EU 384 and 385) heavy: EVQLLESGGGLVQPGGSLRLSCAASGFTFSSYIMMWVRQAPGKGLEWVSSIYPSGGITFYADTVKGRFTISRDNSKNTLYLQMNSLRAEDTAVYYCARIKLGTVTTVDYWGQGTLVTVSSASTKGPSVFPLAPSSKSTSGGTAALGCLVKDYFPEPVTVSWNSGALTSGVHTFPAVLQSSGLYSLSSVVTVPSSSLGTQTYICNVNHKPSNTKVDKKVEPKSCDKTHTCPPCPAPELLGGPSVFLFPPKPKDTLMISRTPEVTCVVVDVSHEDPEVKFNWYVDGVEVHNAKTKPREEQYNSTYRVVSVLTVLHQDWLNGKEYKCKVSNKALPAPIEKTISKAKGQPREPQVYTLPPSRDELTKNQVSLTCLVKGFYPSDIAVEWESNGGGGSGGGGSDVVMTQSPLSLPVTLGQPASISCRSSQSLLHSNGNTYLHWYQQRPGQSPNHLIYQVSNRFSGVPDRFSGSGSGTDFTLKISRVEAEDVGVYFCSQTTHVPWTFGCGTKVEIKGGGGSGGGGSGGGGSGGGGSQVQLVQSGAEVKKPGASVKLSCKASGYTFISYYIYWVKQAPGQCLEWIGGINPRNGGTNFNEKFKSRATLTVDTSISTAYMELSRLRSEDTAVYYCTRHGNGVYWGQGTTLTVSSGGGGSGGGGSGQPENNYKTTPPVLDSDGSFFLYSKLTVDKSRWQQGNVFSCSVMHEALHNHYTQKSLSLSPGK light: QSALTQPASVSGSPGQSITISCTGTSSDVGGYNYVSWYQQHPGKAPKLMIYDVSNRPSGVSNRFSGSKSGNTASLTISGLQAEDEADYYCSSYTSSSTRVFGTGTKVTVLGQPKANPTVTLFPPSSEELQANKATLVCLISDFYPGAVTVAWKADGSPVKAGVETTKPSKQSNNKYAASSYLSLTPEQWKSHRSYSCQVTHEGSTVEKTVAPTECS | 0.865 | 0.000472 | 546000
6 | PDL1-C40-6A7-FV3A (IgG1) (bispecific antibody, IgG1; also called G3) heavy: EVQLLESGGGLVQPGGSLRLSCAASGFTFSSYIMMWVRQAPGKGLEWVSSIYPSGGITFYADTVKGRFTISRDNSKNTLYLQMNSLRAEDTAVYYCARIKLGTVTTVDYWGQGTLVTVSSASTKGPSVFPLAPSSKSTSGGTAALGCLVKDYFPEPVTVSWNSGALTSGVHTFPAVLQSSGLYSLSSVVTVPSSSLGTQTYICNVNHKPSNTKVDKKVEPKSCDKTHTCPPCPAPELLGGPSVFLFPPKPKDTLMISRTPEVTCVVVDVSHEDPEVKFNWYVDGVEVHNAKTKPREEQYNSTYRVVSVLTVLHQDWLNGKEYKCKVSNKALPAPIEKTISKAKGQPREPQVYTLPPSRDEGGGGSGGGGSDVVMTQSPLSLPVTLGQPASISCRSSQSLLHSNGNTYLHWYQQRPGQSPNHLIYQVSNRFSGVPDRFSGSGSGTDFTLKISRVEAEDVGVYFCSQTTHVPWTFGCGTKVEIKGGGGSGGGGSGGGGSGGGGSQVQLVQSGAEVKKPGASVKLSCKASGYTFISYYIYWVKQAPGQCLEWIGGINPRNGGTNFNEKFKSRATLTVDTSISTAYMELSRLRSEDTAVYYCTRHGNGVYWGQGTTLTVSSGGGGSGGGGSVSLTCLVKGFYPSDIAVEWESNGQPENNYKTTPPVLDSDGSFFLYSKLTVDKSRWQQGNVFSCSVMHEALHNHYTQKSLSLSPGK light: QSALTQPASVSGSPGQSITISCTGTSSDVGGYNYVSWYQQHPGKAPKLMIYDVSNRPSGVSNRFSGSKSGNTASLTISGLQAEDEADYYCSSYTSSSTRVFGTGTKVTVLGQPKANPTVTLFPPSSEELQANKATLVCLISDFYPGAVTVAWKADGSPVKAGVETTKPSKQSNNKYAASSYLSLTPEQWKSHRSYSCQVTHEGSTVEKTVAPTECS | 1.09 | 0.000427 | 391000
